Columns and labels:
[1] = molecular target: T1, endogenous Omi protein precipitated from 293 cells with the anti-Omi polyclonal antibody
T1 chain: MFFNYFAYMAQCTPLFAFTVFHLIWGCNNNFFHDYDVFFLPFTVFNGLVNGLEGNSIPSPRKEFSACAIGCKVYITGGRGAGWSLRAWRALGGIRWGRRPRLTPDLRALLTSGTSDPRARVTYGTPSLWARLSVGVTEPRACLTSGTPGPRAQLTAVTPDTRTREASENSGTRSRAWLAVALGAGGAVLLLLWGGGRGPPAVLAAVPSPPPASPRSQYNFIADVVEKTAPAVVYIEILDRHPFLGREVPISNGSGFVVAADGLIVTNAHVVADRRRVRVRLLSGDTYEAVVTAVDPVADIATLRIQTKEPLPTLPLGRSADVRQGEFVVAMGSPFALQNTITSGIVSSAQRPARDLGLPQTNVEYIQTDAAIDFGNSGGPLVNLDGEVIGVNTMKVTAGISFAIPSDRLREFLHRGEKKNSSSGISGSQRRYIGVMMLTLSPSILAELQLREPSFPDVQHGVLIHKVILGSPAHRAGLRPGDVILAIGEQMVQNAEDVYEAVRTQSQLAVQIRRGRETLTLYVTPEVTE

[2] = molecular target: His-Max made in bacteria, P61244
Sequence of His-Max made in bacteria, P61244 (P61244 whole entry): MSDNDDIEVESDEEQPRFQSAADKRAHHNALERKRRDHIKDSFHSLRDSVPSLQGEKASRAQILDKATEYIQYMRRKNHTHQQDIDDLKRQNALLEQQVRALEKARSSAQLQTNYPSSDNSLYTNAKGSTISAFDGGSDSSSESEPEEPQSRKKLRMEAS

B1: Mxi2 as a hemaglutinin epitope-tagged fusion (Mxi2-HA), expressed in 293 cells (protein)
chain: MSQERPTFYRQELNKTIWEVPERYQNLSPVGSGAYGSVCAAFDTKTGLRVAVKKLSRPFQSIIHAKRTYRELRLLKHMKHENVIGLLDVFTPARSLEEFNDVYLVTHLMGADLNNIVKCQKLTDDHVQFLIYQILRGLKYIHSADIIHRDLKPSNLAVNEDCELKILDFGLARHTDDEMTGYVATRWYRAPEIMLNWMHYNQTVDIWSVGCIMAELLTGRTLFPGTDHIDQLKLILRLVGTPGAELLKKISSESARNYIQSLTQMPKMNFANVFIGANPLGKLTIYPHLMDIELVMI
[1]
  phosphorylation of Omi by isolated HA-Mxi2 (autoradiograph): The autoradiograph shows Omi as well as Max protein was phosphorylated
  phosphorylation of Omi in a kinase reaction on the immunoprecipitated Omi/Mxi2 complex ([gamma-32P]ATP, autoradiography): Phosphorylated Omi is shown as a doublet of phosphorylated polypeptides with a molecular weight of 57-59 kD
  proteolytic activity of Omi (colorimetric assay, absorbance at 450 nm): the proteolytic activity of Omi increases dramatically when phosphorylated by Mxi2
[2]
  phosphorylation of Max by isolated HA-Mxi2 (autoradiograph): The autoradiograph shows Omi as well as Max protein was phosphorylated
  phosphorylation of Max in the same kinase reaction: Max was also phopshorylated very efficiently

— patent publication US20030157685
